Experimental data reported in the supplement of paper PMC10567573.

B1: FCHO1 (parent)
chain: FSDPSQSDPETKDFWLNMAALTEA
B2: CASP6 (parent)
chain: TCADRDNLTRRFSDLGFEVKCFND

Variants of: B1
Assay: protein stability index of a GFP-peptide fusion (GPS, HEK-293T) (PSI 1-6); higher = more stable
Conditions: c terminus: a fixed tail appended
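Further: lentivirally expressed fusions sorted by FACS into six bins by GFP to DsRed ratio, PSI derived from sequencing read proportions per bin multiplied by bin number.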

| Variant | protein stability index |
| --- | --- |
| L16E | 4.87 |
| D8W | 1.86 |
| S7V | 3.29 |
| S7L | 2.65 |
| S2E | 4.62 |
| S2I | 2.8 |
| D3P | 2.4 |
| D13Y | 2.25 |
| D13C | 1.77 |
| E10S | 2.2 |
| E10W | 1.83 |
| E10L | 2.33 |
| E10F | 1.94 |
| A20T | 2.71 |
| Q6V | 2.85 |
| S5L | 2.84 |

| Variant | protein stability index |
| --- | --- |
| F14V | 4.01 |
| L21E | 3.9 |
| L21Y | 2.38 |
| L21K | 2.95 |
| K12G | 3.23 |
| K12N | 3.66 |
| P9F | 2.76 |
| P9Q | 3.27 |
| P9E | 4.01 |
| T11R | 2.69 |
| E23V | 2.24 |
| A19E | 2.74 |
| T22H | 3 |
| T22P | 2.34 |
| F1A | 4.73 |
| F1C | 4.02 |

Variants of: B2
Assay: as above
Conditions: c terminus: a fixed tail appended

| Variant | protein stability index |
| --- | --- |
| K20M | 2.57 |
| K20H | 2.89 |
| K20Y | 2.2 |
| K20V | 2.83 |
| K20Q | 3.37 |
| K20S | 3.17 |
| K20G | 3.54 |
| K20W | 2.56 |
| K20R | 3.32 |
| K20I | 2.42 |
| K20L | 3 |
| K20T | 3.15 |
| K20D | 4.14 |
| K20A | 3.76 |
| K20P | 3.58 |
| K20C | 2.75 |
| K20E | 3.6 |
| K20F | 2.87 |
| K20N | 3.75 |
| C21V | 2.67 |
| C21P | 3.17 |
| C21G | 3.5 |
| C21E | 4.3 |

| Variant | protein stability index |
| --- | --- |
| C21S | 4.01 |
| C21Y | 2.97 |
| C21H | 3.72 |
| C21F | 2.16 |
| C21W | 2.63 |
| C21A | 3.53 |
| C21L | 2.85 |
| C21Q | 4.05 |
| C21T | 3.98 |
| C21D | 4.17 |
| C21N | 3.82 |
| C21K | 4.2 |
| C21M | 3.2 |
| C21I | 2.52 |
| C21R | 3.72 |
| F17Y | 2.62 |
| F17W | 2.44 |
| F17V | 3.61 |
| F22S | 3.84 |
| F22K | 4.72 |
| F22V | 3.93 |
| F22G | 3.37 |
| F22M | 3.96 |

| Variant | protein stability index |
| --- | --- |
| F22T | 4.73 |
| F22P | 4.32 |
| F22A | 4.54 |
| F22Q | 4.15 |
| F22Y | 3.98 |
| F22D | 4.95 |
| F22L | 3.89 |
| F22N | 4.58 |
| F22H | 3.86 |
| F22C | 3.83 |
| F22E | 4.46 |
| F22I | 3.9 |
| F22W | 3.28 |
| F22R | 3.73 |
| N23L | 3.8 |
| N23T | 3.28 |
| N23A | 3.52 |
| N23I | 2.49 |
| N23E | 4.66 |
| N23C | 1.8 |
| N23H | 2.71 |
| N23Q | 3.12 |
| N23P | 3.61 |

| Variant | protein stability index |
| --- | --- |
| N23W | 1.41 |
| N23Y | 2.34 |
| N23R | 3.89 |
| N23S | 3.66 |
| N23M | 2.98 |
| N23G | 3.23 |
| N23F | 2.51 |
| N23K | 3.41 |
| N23D | 3.41 |
| N23V | 2.81 |
| V19W | 2.76 |
| V19C | 1.95 |
| V19N | 3.9 |
| V19T | 4.24 |
| V19Y | 3.5 |
| V19A | 3.62 |
| V19I | 3.44 |
| V19P | 4.38 |
| V19M | 3.49 |
| V19G | 4.08 |
| V19E | 4.31 |
| V19R | 3.48 |
| V19K | 3.94 |

| Variant | protein stability index |
| --- | --- |
| V19S | 3.8 |
| V19H | 3.36 |
| V19L | 2.57 |
| V19F | 2.69 |
| V19D | 4.93 |
| V19Q | 3.85 |
| E18N | 3.44 |
| E18C | 2.76 |
| E18V | 2.82 |
| E18D | 3.86 |
| E18A | 3.25 |
| E18W | 2.55 |
| E18I | 2.65 |
| E18F | 1.78 |
| E18Y | 2.29 |
| E18G | 2.87 |
| E18P | 3.49 |
| E18H | 2.48 |
| E18M | 2.22 |
| E18K | 3.3 |
| E18T | 3.05 |
| E18R | 3.14 |
| E18Q | 3.1 |

| Variant | protein stability index |
| --- | --- |
| E18S | 2.89 |
| D24Q | 3.24 |
| D24K | 3.02 |
| D24R | 2.67 |
| D24L | 2.17 |
| D24N | 2.97 |
| D24W | 2.14 |
| D24H | 2.95 |
| D24E | 2.94 |
| D24I | 1.87 |
| D24P | 3.24 |
| D24A | 2.21 |
| D24G | 2.66 |
| D24T | 2.54 |
| D24Y | 2.04 |
| D24V | 1.23 |
| D24M | 2.6 |
| D24F | 2.11 |
| D24S | 2.57 |
| D24C | 2.41 |
